Values quoted from earlier work, collected in patent US20090068143A1, “ORALLY EFFECTIVE C[…]” (priority 2005, published 2009).

Conditions: in vivo; cited from earlier work

B1: IFN-β-1b: beta interferon product to which patients develop NAbs (protein, UniProt P01574 22-187, looked up, variant C17S)
Interferon beta: MSYNLLGFLQRSSNFQSQKLLWQLNGRLEYCLKDRMNFDIPEEIKQLQQFQKEDAALTIYEMLQNIFAIFRQDSSSTGWNETIVENLLANVYHQINHLKTVLEEKLEKEDFTRGKLMSSLHLKRYYGRILHYLKAKEYSHCAWTIVRVEILRNFYFINRLTGYLRN
patients developing neutralizing antibodies (NAbs): Twenty-eight to forty-seven
